Values quoted from earlier work in article PMC8349851.

Molecular target: PI3K p85 regulatory subunit SH3 (Homo sapiens) (UniProt P27986)
Chain of UniProt P27986 (P27986 1-82): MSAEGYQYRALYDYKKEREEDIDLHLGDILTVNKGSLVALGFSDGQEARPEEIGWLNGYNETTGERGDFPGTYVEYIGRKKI

Kd: 50 nM
Substance: obscurin PH (from UniProt Q5VST9)
